Laboratory results from the supplement of paper PMC10126150.
± gives the standard deviation of the averaged measurements.

Each sequence was assayed on ATP (assay: switch fluorescence ratio, 500 uM ATP over buffer (Cy3 cluster intensity, sum of 5 cycles each) (fold (ratio)); higher = stronger signal-on switching upon ATP binding; sequences stand for … in TCGTCGGCAGCGTCAGATGTGTATAAGAGACAGTTTTTTTTTTTTTTTTTTTTTTTTT…TC). Conditions: aptamer strand: ATP DNA aptamer (quencher-CACCTGGGGGAGTATTGCGGAGGAAGG + anchor), 100 nM annealed; ATP concentration: 500 uM.
How it was run: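 The quencher-labelled ATP aptamer, at 100 nM, was annealed to Cy3-labelled switching-strand clusters on a modified Illumina MiSeq flow-cell. The clusters were imaged in selection buffer, then after 15 min with 500 uM ATP at 22 °C, and this buffer/ATP cycle ran five times with NaOH stripping and re-annealing between runs. Per-cluster fluorescence ratios, summed target-cycle over summed buffer-cycle Cy3 intensity, were averaged per switch-domain sequence. Clusters outside 100-1000 RFU were excluded.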
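Also: ATP exposure 15 min at 22 °C before imaging.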

Row | Sequence | switch fluorescence ratio
1 | TGCAAAGATT | 0.99 ± 0.016
2 | TGCAAATTGG | 0.992 ± 0.011
3 | TGCAAGGGGC | 1.04 ± 0.04
4 | TGCACATAGG | 1.06 ± 0.016
5 | TGCACCAGGA | 1.13 ± 0.067
6 | TGCAGATTTA | 1.01 ± 0.014
7 | TGCAGCGTTC | 1.27 ± 0.053
8 | TGCAGGAATG | 2.17 ± 1.6
9 | TGCAGGCTGC | 0.989 ± 0.048
10 | TGCAGGGAGG | 1.02 ± 0.0064
11 | TGCAGGGCGA | 1.004 ± 0.0097
12 | TGCAGGGGGG | 1.02 ± 0.039
13 | TGCAGGGGGT | 1.09 ± 0.14
14 | TGCAGTATGG | 0.997 ± 0.019
15 | TGCAGTCAAG | 1.01 ± 0.016
16 | TGCAGTGAAT | 0.999 ± 0.026
17 | TGCATGAGCG | 1.02 ± 0.032
18 | TGCATGGTGG | 0.995 ± 0.01
19 | TGCATGTAGG | 1.01 ± 0.034
20 | TGCATTAATT | 0.992 ± 0.019
21 | TGCATTGCTA | 1.04 ± 0.015
22 | TGCATTGGAG | 1.01 ± 0.043
23 | TGCATTGGG | 0.975 ± 0.058
24 | TGCATTGGGA | 1.02 ± 0.043
25 | TGCATTTTCG | 1.03 ± 0.049

Row | Sequence | switch fluorescence ratio
26 | TGCATTTTTT | 0.981 ± 0.034
27 | TGCCAGTGGG | 1.04 ± 0.068
28 | TGCCATGTGT | 1.032 ± 0.0036
29 | TGCCCCCGGT | 1.08 ± 0.066
30 | TGCCCGAGCT | 1.03 ± 0.1
31 | TGCCCTTGCG | 0.9827 ± 0.0046
32 | TGCCGAAGGT | 1.03 ± 0.024
33 | TGCCGGACCG | 1.02 ± 0.033
34 | TGCCGGGTTC | 0.979 ± 0.03
35 | TGCCGTTTGC | 0.965 ± 0.029
36 | TGCCTAAGTA | 1.02 ± 0.018
37 | TGCCTCGGGG | 1.042 ± 0.0049
38 | TGCCTGGGTG | 2.74 ± 1.1
39 | TGCCTGTCTA | 1.02 ± 0.018
40 | TGCCTTTGTA | 0.963 ± 0.013
41 | TGCGAAAGGA | 1.01 ± 0.016
42 | TGCGAAATTT | 0.965 ± 0.013
43 | TGCGACAGGG | 0.988 ± 0.013
44 | TGCGACCGTT | 1.01 ± 0.033
45 | TGCGAGGCTT | 1.022 ± 0.0058
46 | TGCGAGGTTG | 1.01 ± 0.041
47 | TGCGAGTATT | 1.038 ± 0.0023
48 | TGCGAGTGCT | 0.976 ± 0.037
49 | TGCGAGTTCT | 1 ± 0.014
50 | TGCGATAAGC | 1.026 ± 0.01

Row | Sequence | switch fluorescence ratio
51 | TGCGCCTACC | 1.28 ± 0.058
52 | TGCGCCTTAC | 3.37 ± 0.38
53 | TGCGGACAA | 0.9948 ± 0.0043
54 | TGCGGGAGTA | 1.003 ± 0.0014
55 | TGCGGGCAAG | 0.992 ± 0.015
56 | TGCGGGCGTT | 0.993 ± 0.013
57 | TGCGGGGTGC | 1.02 ± 0.0028
58 | TGCGGTCACT | 0.9964 ± 0.0056
59 | TGCGTAAAAT | 1.008 ± 0.0028
60 | TGCGTATTCT | 0.967 ± 0.045
61 | TGCGTGGGGT | 1.01 ± 0.022
62 | TGCGTGTCTT | 1.01 ± 0.018
63 | TGCGTTATTA | 0.999 ± 0.017
64 | TGCTAATAGG | 1.01 ± 0.02
65 | TGCTACACGT | 1.01 ± 0.027
66 | TGCTACGTTT | 0.991 ± 0.02
67 | TGCTAGAGCT | 0.997 ± 0.011
68 | TGCTATAGAG | 1.048 ± 0.0012
69 | TGCTATGGC | 1.09 ± 0.092
70 | TGCTATTAGG | 0.979 ± 0.045
71 | TGCTCAGCTG | 1.04 ± 0.026
72 | TGCTCCTGAT | 1.02 ± 0.055
73 | TGCTCGGTTT | 0.998 ± 0.045
74 | TGCTCTACGG | 1 ± 0.018
75 | TGCTGAAAGA | 1.04 ± 0.028

Row | Sequence | switch fluorescence ratio
76 | TGCTGAAATG | 1.03 ± 0.07
77 | TGCTGCTGAG | 0.971 ± 0.016
78 | TGCTGGCCAC | 1.01 ± 0.013
79 | TGCTGGGGTC | 0.977 ± 0.016
80 | TGCTGGGTGG | 1.01 ± 0.02
81 | TGCTGTAACG | 1.02 ± 0.017
82 | TGCTGTAAGG | 1 ± 0.036
83 | TGCTGTAATA | 1.035 ± 0.0031
84 | TGCTGTCTGT | 0.9903 ± 0.0058
85 | TGCTGTTAAT | 0.9829 ± 0.0089
86 | TGCTGTTGGA | 0.953 ± 0.011
87 | TGCTTAAAGT | 0.9807 ± 0.0054
88 | TGCTTAGACT | 1.18 ± 0.27
89 | TGCTTATCTA | 1.016 ± 0.0077
90 | TGCTTATGGG | 0.965 ± 0.016
91 | TGCTTATTGG | 0.9725 ± 0.0081
92 | TGCTTATTTG | 1 ± 0.023
93 | TGCTTCTCGA | 0.991 ± 0.031
94 | TGCTTGCTGT | 0.991 ± 0.01
95 | TGCTTGGTTT | 1.02 ± 0.018
96 | TGCTTTACGC | 1.03 ± 0.03
97 | TGCTTTGCCG | 1.09 ± 0.072
98 | TGCTTTTGAT | 1 ± 0.048
99 | TGCTTTTTGT | 1.02 ± 0.046
100 | TGGAAAAATG | 0.991 ± 0.031

Row | Sequence | switch fluorescence ratio
101 | TGGAAAAGTT | 0.993 ± 0.017
102 | TGGAAAGCTG | 1.04 ± 0.025
103 | TGGAAAGGAG | 1.02 ± 0.013
104 | TGGAAAGGGT | 1.06 ± 0.035
105 | TGGAAATGCC | 1.07 ± 0.065
106 | TGGAAGCGGG | 1.04 ± 0.07
107 | TGGAAGGGTG | 1.05 ± 0.017
108 | TGGAATATGG | 1.04 ± 0.021
109 | TGGAATGGGG | 1 ± 0.037
110 | TGGAATTTAG | 1.013 ± 0.00072
111 | TGGACCCGAT | 0.978 ± 0.011
112 | TGGACCTTTT | 1.64 ± 0.82
113 | TGGAGAAAGG | 1.13 ± 0.29
114 | TGGAGAAGAT | 0.978 ± 0.03
115 | TGGAGAAGGT | 1.02 ± 0.027
116 | TGGAGAGGTC | 0.999 ± 0.022
117 | TGGAGAGTAG | 1.01 ± 0.032
118 | TGGAGCAGGG | 1.05 ± 0.036
119 | TGGAGCCAGT | 1.01 ± 0.041
120 | TGGAGGGAAG | 1.03 ± 0.059
121 | TGGAGGGCTC | 1.01 ± 0.025
122 | TGGAGGGGGG | 0.997 ± 0.086
123 | TGGAGTAGG | 1.01 ± 0.025
124 | TGGAGTAGGG | 0.9874 ± 0.0062
125 | TGGAGTGGGG | 1 ± 0.025

Row | Sequence | switch fluorescence ratio
126 | TGGAGTTTGG | 1.15 ± 0.19
127 | TGGATACTTA | 1.02 ± 0.013
128 | TGGATAGCGC | 1.01 ± 0.011
129 | TGGATCACGG | 1.02 ± 0.0054
130 | TGGATCGTAG | 0.978 ± 0.011
131 | TGGATCTCAG | 0.982 ± 0.012
132 | TGGATGAGTG | 0.9822 ± 0.0077
133 | TGGATGGGGA | 0.98 ± 0.028
134 | TGGATGTCAG | 0.992 ± 0.054
135 | TGGATGTGTG | 0.962 ± 0.038
136 | TGGATTATTA | 1.02 ± 0.014
137 | TGGATTGGGG | 0.978 ± 0.059
138 | TGGATTGTCC | 1.03 ± 0.012
139 | TGGATTTAGT | 0.9825 ± 0.0084
140 | TGGCACAGGG | 1.06 ± 0.016
141 | TGGCAGACTC | 1.28 ± 0.013
142 | TGGCAGTCTA | 0.979 ± 0.018
143 | TGGCAGTGGT | 0.993 ± 0.03
144 | TGGCAGTGTG | 1.05 ± 0.019
145 | TGGCATAGGT | 1.02 ± 0.03
146 | TGGCATAGTT | 0.995 ± 0.042
147 | TGGCCAGGGT | 1.06 ± 0.031
148 | TGGCCCGGGA | 0.9878 ± 0.0035
149 | TGGCCGGGCG | 1.011 ± 0.0026
150 | TGGCCTAGG | 1 ± 0.029

Row | Sequence | switch fluorescence ratio
151 | TGGCGATTGT | 0.986 ± 0.014
152 | TGGCGCCCTT | 1.01 ± 0.012
153 | TGGCGGACAG | 0.99 ± 0.026
154 | TGGCGGTGCT | 0.997 ± 0.028
155 | TGGCGTGTTA | 1.02 ± 0.044
156 | TGGCTAAAAT | 0.998 ± 0.023
157 | TGGCTAAGGT | 1.023 ± 0.0017
158 | TGGCTCATAC | 1.45 ± 0.041
159 | TGGCTCGGGG | 1.03 ± 0.051
160 | TGGCTGGGTA | 0.983 ± 0.043
161 | TGGCTTAAAC | 1.18 ± 0.28
162 | TGGCTTACAG | 1.003 ± 0.0022
163 | TGGCTTGGCG | 1.01 ± 0.072
164 | TGGGAAAAAG | 0.972 ± 0.039
165 | TGGGAAAGCA | 1 ± 0.012
166 | TGGGAAATCT | 1.17 ± 0.25
167 | TGGGAACCGT | 1.18 ± 0.32
168 | TGGGAAGACA | 1.06 ± 0.092
169 | TGGGAAGATT | 1.028 ± 0.0041
170 | TGGGAAGGCA | 1 ± 0.025
171 | TGGGAAGTCC | 1.001 ± 0.0074
172 | TGGGAATATG | 1 ± 0.036
173 | TGGGAATGAC | 2.01 ± 1.4
174 | TGGGACAGTG | 0.968 ± 0.058
175 | TGGGACATGG | 0.995 ± 0.031

Row | Sequence | switch fluorescence ratio
176 | TGGGACCAGG | 1.05 ± 0.03
177 | TGGGACGTAC | 1.79 ± 0.15
178 | TGGGACTTGG | 1.01 ± 0.018
179 | TGGGACTTTG | 1.0328 ± 0.001
180 | TGGGAGAGGT | 0.996 ± 0.02
181 | TGGGAGAGTC | 0.989 ± 0.047
182 | TGGGAGGCAA | 1.16 ± 0.021
183 | TGGGAGGGGA | 1.03 ± 0.035
184 | TGGGAGGTTC | 1.03 ± 0.02
185 | TGGGAGTTGG | 1.03 ± 0.012
186 | TGGGATAAAG | 0.9923 ± 0.0029
187 | TGGGATATGG | 0.996 ± 0.029
188 | TGGGATCGCT | 1.038 ± 0.0056
189 | TGGGATCTGG | 0.997 ± 0.037
190 | TGGGATGCAG | 1.01 ± 0.065
191 | TGGGATTATT | 1.02 ± 0.019
192 | TGGGATTGGG | 0.974 ± 0.013
193 | TGGGATTGTT | 1 ± 0.035
194 | TGGGCAACCG | 1.02 ± 0.065
195 | TGGGCAGGCT | 0.998 ± 0.044
196 | TGGGCATATG | 0.993 ± 0.014
197 | TGGGCATTAT | 1.04 ± 0.07
198 | TGGGCATTTT | 0.987 ± 0.025
199 | TGGGCCAGTG | 1.05 ± 0.014
200 | TGGGCCGCCC | 1.07 ± 0.12
